Assay results as given in patent US20250282868A1 (ITEOS BELGIUM, published 2025).
Numbering of substitutions follows the chain as printed.

T1: mouse TREM2 (mouse, UniProt Q99NH8 19-227)
T1 construct: whole, on cells
T1 sequence (looked up): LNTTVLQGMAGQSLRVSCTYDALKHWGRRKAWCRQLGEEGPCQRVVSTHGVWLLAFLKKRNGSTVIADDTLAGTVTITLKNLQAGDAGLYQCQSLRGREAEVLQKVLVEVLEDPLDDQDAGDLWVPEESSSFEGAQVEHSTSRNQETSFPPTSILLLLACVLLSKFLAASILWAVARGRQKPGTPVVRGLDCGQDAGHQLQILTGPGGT

T2: human TREM2 (human, UniProt Q9NZC2 19-230)
T2 construct: on THP-1 WT cells and M2a-like macrophages (endogenous) and on CHO or HEK293T cells overexpressing human TREM2 with DAP12; also called hTREM2
T2 sequence: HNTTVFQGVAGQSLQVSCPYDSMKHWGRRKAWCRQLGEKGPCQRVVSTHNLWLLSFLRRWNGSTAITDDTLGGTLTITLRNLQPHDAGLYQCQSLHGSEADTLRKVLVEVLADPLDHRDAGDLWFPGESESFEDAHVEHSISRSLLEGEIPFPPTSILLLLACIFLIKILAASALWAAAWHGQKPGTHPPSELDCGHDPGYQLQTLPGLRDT

T3: cynomolgus TREM2 (cynomolgus, UniProt A0A2K5UY34 49-260)
T3 construct: also called cynoTREM2; cTREM2
T3 sequence: T2 sequence with A10E, W60R, L89F, F125V, I157V, L193P, Y201H

B1: EOS006164 (antibody, V domains shown)
VH: EVQLVESGGGLVQPGRSLRLSCTASGFTFDDYTMSWFRQAPGKGLEWVGFIGSKAYSATTEYTASVKGRFTISRDGSKSIAYLQMNSLKTEDTAVYYCARGKRYSYTYWTPAFDVWGQGTMVTVSS
VL: DIQMTQSPSSLSASVGDRVTITCQASQDITNYLNWYQQKPGKAPKLLIYDASNLETGVPSRFSGSGSGTDFTFTISSLQPEDIATYYCQEYDSYITFGGGTKVEIK
B2: EOS006173 (antibody, V domains shown)
VH: B1 VH with D30G, T33A, S57G, A58G, Y104R, S105D, T107G, T110H
VL: B1 VL with S93Q, I95L
notes: also called EOS061730
B3: EOS006174 (antibody, V domains shown)
VH: B1 VH with D30G, D31E, S57A, A58G, T107G, Y108G, T110V
VL: B1 VL with I95L, T96A
B4: EOS006170 (antibody, V domains shown)
VH: QVQLQESGPGLVKPSGTLSLTCAVSGGSISSSNWWSWVRQPPGKGLEWIGEIYHSGSTNYNPSLKSRVTISVDKSKNQFSLKLSSVTAADTAVYYCARDTKYQAGMDVWGQGTTVTVSS
VL: B1 VL with T30S, E55A, E90Q, D92V, S93V, Y94F, I95P
B5: EOS006177 (antibody, V domains shown)
VH: B4 VH with S31D, N33A, S55D, G56A, S57D, Q103W, A104G
VL: B1 VL with T30S, E55A, E90Q, D92V, S93E, Y94A, I95P
B6: EOS006167 (antibody, V domains shown)
VH: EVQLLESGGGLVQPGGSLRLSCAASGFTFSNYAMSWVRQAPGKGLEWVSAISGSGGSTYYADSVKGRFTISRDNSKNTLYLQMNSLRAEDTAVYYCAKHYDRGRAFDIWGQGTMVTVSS
VL: EIVLTQSPGTLSLSPGERATLSCRASQSVSSSYLAWYQQKPGQAPRLLIYGASSRATGIPDRFSGSGSGTDFTLTISRLEPEDFAVYYCQQYDDVPYTFGGGTKVEIK
B7: EOS006168 (antibody, V domains shown)
VH: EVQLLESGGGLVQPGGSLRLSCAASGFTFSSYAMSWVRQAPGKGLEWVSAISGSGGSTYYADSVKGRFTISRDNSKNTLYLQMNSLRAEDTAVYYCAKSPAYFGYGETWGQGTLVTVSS
VL: B6 VL with Y33F, D93Y, D94S, V95P, Y97I
B8: EOS006180 (antibody, V domains shown)
VH: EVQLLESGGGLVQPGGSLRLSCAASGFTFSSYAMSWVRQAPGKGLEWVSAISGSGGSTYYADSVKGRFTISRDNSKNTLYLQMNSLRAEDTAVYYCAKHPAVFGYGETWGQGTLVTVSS
VL: B6 VL with Y33F, D93Y, D94G, V95L, Y97I
B9: EOS006166 (antibody, V domains shown)
VH: B1 VH with D30G, T33A, S57G, A58G, T107G, T110H
VL: B1 VL with E90Q, I95L

target: T1, mouse TREM2; experiment: MFI on CT26 cells over-expressing mouse TREM2 and DAP12 vs CT26 empty vector
Protocol: (§1) Cross-reactivity to mouse TREM2 was assessed using CT26 cells over-expressing mouse TREM2 and DAP12 (Table 23). Eight anti-TREM2 antibodies and both benchmark antibodies were considered cross-reactive to mouse TREM2 (MFI higher than isotype control and fold change of CT26-TREM2 over the CT26 Empty Vector higher than 5). The remaining anti-TREM2 antibodies were considered as being low to not cross-reactive (fold change less than 5). EOS006171 was not tested due to clear non-cross-reactivity preliminary data by octet (data not shown).

| Binder | MFI Fold change (CT26-TREM2 over CT26-EV) |
| --- | --- |
| B1 | 21.4 fold |
| B2 | 11 fold |
| B3 | 34.3 fold |
| B4 | 1 fold |
| B5 | 21.4 fold |
| B6 | 4.7 fold |
| B7 | 1.6 fold |
| B8 | 1.8 fold |

target: T2, human TREM2; experiment: flow cytometry, THP-1 WT cells, 10 ug/ml
Protocol: (§2) In order to test specificity of selected antibodies to TREM2, binding was tested by flow cytometry on THP-1 TREM2 KO (clone, produced using CRISPR technology in house) and on THP-1 WT. Cells were incubated with selected anti-TREM2 antibodies (final concentration of 10 μg/ml) for 30 min at 4° C. After washing, bound antibodies were detected with a secondary anti-human IgG Fc PE-labelled for 30 min at 4° C. Fluorescence intensity was measured by flow cytometry.

| Binder | Fold over isotype control THP1 WT |
| --- | --- |
| B9 | 7.3 fold |
| B1 | 3.7 fold |
| B2 | 3.3 fold |
| B3 | 4 fold |
| B4 | 2.3 fold |
| B5 | 3.3 fold |
| B6 | 2.1 fold |
| B7 | 3 fold |

target: T2, human TREM2; experiment: flow cytometry, M2a-like macrophages, dose-response
Protocol: (§3) M2a-like macrophages were produced in vitro from monocytes of healthy donors. Briefly, after PBMCs isolation from peripheral blood using Lymphoprep™ gradient, CD14+ cells were purified and seeded in presence of MCSF 50 ng/ml for 6 days. Macrophages were then cultured with IL-13 and IL-4 at a concentration of 20 ng/ml for two additional days and then used for a cell-based binding assay.
(§4) M2a-like macrophages were incubated with anti-TREM2 antibodies (dose-response curve with 11 concentrations from 10 μg/ml to 0.0001 μg/ml) for 30 min at 4° C. After washing, bound antibodies were detected with a secondary anti-human IgG Fc PE-labelled for 30 min at 4° C. Fluorescence intensity was measured by flow cytometry. Equilibrium dissociation constant (kD) was then calculated for each antibody using median MFI normalized over isotype control.

| Binder | Kd |
| --- | --- |
| B9 | 1.21 nM |
| B1 | 0.32 nM |
| B2 | 0.3 nM |
| B3 | 0.09 nM |
| B4 | 8.2 nM |
| B5 | 0.19 nM |
| B6 | 10.2 nM |
| B7 | 2.99 nM |

target: T3, cynomolgus TREM2; experiment: MFI on CHO cells over-expressing cynoTREM2-DAP12
Protocol: (§5) Cross-reactivity of anti-TREM2 antibodies to cynomolgus TREM2 (cynoTREM2) was assessed using CHO over-expressing cynoTREM2-DAP12 (Table 22). Benchmark antibodies, AB52 and PN-37012, were examined for comparison.

| Binder | Binding to CHO-cTREM2 MFI |
| --- | --- |
| B9 | 25500 MFI |
| B1 | 14200 MFI |
| B2 | 14000 MFI |
| B3 | 15700 MFI |
| B4 | 1650 MFI |
| B5 | 19600 MFI |
| B6 | 7220 MFI |
| B7 | 194 MFI |

target: T2, human TREM2; experiment: flow cytometry, M2a-like macrophages
Protocol: as §3, §4

| Binder | Fold over isotype |
| --- | --- |
| B9 | 5.9 fold |
| B1 | 12.9 fold |
| B2 | 8.2 fold |
| B3 | 14.9 fold |
| B4 | 1.1 fold |
| B5 | 17.3 fold |
| B6 | 1.6 fold |
| B7 | 1.9 fold |

target: T2, human TREM2; experiment: cell-based or functional assay

| Binder | Fold over isotype control at 66 nM | pSYK/TotSYK EC50 (nM) |
| --- | --- | --- |
| B9 | 1.75 fold | – |
| B1 | 1.16 fold | – |
| B2 | 1.34 fold | 1.08 nM |
| B3 | 0.897 fold | – |
| B4 | 1.31 fold | – |
| B5 | 0.95 fold | – |
| B6 | 1.57 fold | 49.9 nM |
| B7 | 1.99 fold | 96 nM |

target: T1, mouse TREM2; experiment: MFI on CT26 cells over-expressing mouse TREM2 and DAP12
Protocol: as §1

| Binder | Binding to CT26-TREM2 MFI |
| --- | --- |
| B1 | 6540 MFI |
| B2 | 3940 MFI |
| B3 | 10100 MFI |
| B4 | 322 MFI |
| B5 | 8680 MFI |
| B6 | 2060 MFI |
| B7 | 655 MFI |
| B8 | 1890 MFI |

target: T3, cynomolgus TREM2; experiment: MFI on CHO cells over-expressing cynoTREM2-DAP12 vs CHO empty vector
Protocol: as §5

| Binder | MFI Fold change (CHO-cTREM2 over CHO-EV) |
| --- | --- |
| B9 | 602 fold |
| B1 | 277 fold |
| B2 | 329 fold |
| B3 | 323 fold |
| B4 | 42.8 fold |
| B5 | 355 fold |
| B6 | 128 fold |
| B7 | 3.3 fold |

target: T1, mouse TREM2; experiment: MFI on CT26 cells over-expressing mouse TREM2 and DAP12; column 'Considered cross-reactive'
Protocol: as §1

| Binder | binding result |
| --- | --- |
| B4 | no binding (tested: fold change less than 5) |
| B6 | no binding (tested: fold change less than 5) |
| B7 | no binding (tested: fold change less than 5) |
| B8 | no binding (tested: fold change less than 5) |

target: T2, human TREM2; experiment: flow cytometry, THP-1 WT vs THP-1 TREM2 KO cells, 10 ug/ml
Protocol: as §2

| Binder | MFI Fold change (THP-1 WT over THP-1 TREM2 KO) |
| --- | --- |
| B9 | 1.8 fold |
| B1 | 4.3 fold |
| B2 | 3.3 fold |
| B3 | 5.1 fold |
| B4 | 3.2 fold |
| B5 | 6.8 fold |
| B6 | 2.2 fold |
| B7 | 2.3 fold |

target: T2, human TREM2; experiment: cell-based or functional assay; remark: another data set of the same source

| Binder | Stabilization ratio (Mean of 2 replicates) |
| --- | --- |
| B9 | 0.49 ratio |
| B1 | 0.55 ratio |
| B2 | 0.41 ratio |
| B3 | 0.46 ratio |
| B4 | 0.57 ratio |
| B5 | 0.44 ratio |
| B6 | 0.82 ratio |
| B7 | 0.8 ratio |

target: T2, human TREM2; experiment: flow cytometry, competition with LDL-Alexafluor-488 on CHO cells overexpressing human TREM2/DAP12
Protocol: Exemplary anti-TREM2 antibodies were tested in order to characterize their ability to enter in competition with TREM2 ligand, LDL, on CHO overexpressing human TREM2/DAP12. Antibodies (dose response curves from 66.65 nM to 0.07 nM) were incubated for 30 min with cells in a soluble fashion, followed by an incubation with LDL coupled with Alexafluor-488 (at 1 μg/mL final) for 30 min. Finally, after 2 washes, cells were acquired on flow cytometer. The median MFI of Alexafluor-488 was used to plot the graphs. Benchmark antibody MOR044746 was used as positive control.

| Binder | IC50 |
| --- | --- |
| B9 | 0.865 nM |
| B1 | 0.265 nM |
| B2 | 0.145 nM |
| B3 | 0.3 nM |
| B5 | 0.195 nM |
